Results reported in the supplement of paper PMC5998384.

Assays:
HeLa Kyoto [1] = assay: solubility change mitosis vs G1/S (difference of NP-40 vs SDS log2 ratios) (log2 ratio difference); higher = more soluble in mitosis
HeLa Kyoto [2] = assay: solubility in G1/S (NP-40 vs SDS abundance) (log2 ratio); higher = more soluble; settings: cell cycle stage: G1/S
HeLa Kyoto [3] = assay: melting temperature (median over replicates), in situ; higher = more thermally stable
HeLa Kyoto [4] = assay: thermal stability score vs G1/S (z-score of summed log2 fold changes over temperatures); higher = more thermally stable than in G1/S
[5] = cell cycle stage: early G1 (4.5 h after nocodazole release)
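Wherever melting temperature (median over replicates), in situ is given: HeLa Kyoto cells synchronized by double thymidine or nocodazole block, proteins quantified by TMT10plex mass spectrometry, three independent biological replicates.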
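Wherever solubility change mitosis vs G1/S (difference of NP-40 vs SDS log2 ratios) is given: synchronized HeLa Kyoto cells (double thymidine block for G1/S, nocodazole release for mitosis), protein amounts in NP-40 versus SDS lysates quantified by mass spectrometry, three biological replicates.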
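Wherever solubility in G1/S (NP-40 vs SDS abundance) is given: HeLa Kyoto cells arrested at G1/S by double thymidine block, proteins quantified by TMT10plex mass spectrometry in mild NP-40 versus SDS extracts, three biological replicates.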
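Wherever thermal stability score vs G1/S (z-score of summed log2 fold changes over temperatures) is given: synchronized HeLa Kyoto cells, proteins quantified by TMT10plex mass spectrometry, three biological replicates, mitosis taken 0.5 h after nocodazole release, G1/S directly after double thymidine block.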

Sequence of COPE (chain, as listed by the source): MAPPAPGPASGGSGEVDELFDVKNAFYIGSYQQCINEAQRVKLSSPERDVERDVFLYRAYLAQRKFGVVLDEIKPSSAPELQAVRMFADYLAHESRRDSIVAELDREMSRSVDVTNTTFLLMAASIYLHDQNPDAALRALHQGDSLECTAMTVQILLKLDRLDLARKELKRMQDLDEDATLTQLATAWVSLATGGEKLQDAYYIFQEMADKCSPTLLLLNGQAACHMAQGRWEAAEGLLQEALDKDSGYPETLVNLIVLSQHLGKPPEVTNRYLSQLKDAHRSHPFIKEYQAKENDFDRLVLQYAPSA
Sequence of DBNL (chain, as listed by the source): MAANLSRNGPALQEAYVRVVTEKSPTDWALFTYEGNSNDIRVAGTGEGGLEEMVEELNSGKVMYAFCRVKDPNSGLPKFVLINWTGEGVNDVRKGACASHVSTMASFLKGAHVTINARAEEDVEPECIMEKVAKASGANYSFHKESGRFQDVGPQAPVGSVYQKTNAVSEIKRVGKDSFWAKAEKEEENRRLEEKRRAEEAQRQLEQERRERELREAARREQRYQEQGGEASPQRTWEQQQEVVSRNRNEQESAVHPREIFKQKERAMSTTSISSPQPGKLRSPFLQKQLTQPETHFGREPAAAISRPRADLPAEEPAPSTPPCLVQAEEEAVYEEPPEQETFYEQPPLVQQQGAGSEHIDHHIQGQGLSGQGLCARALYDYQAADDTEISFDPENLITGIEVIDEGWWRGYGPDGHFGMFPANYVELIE
Sequence of CYCS (chain, as listed by the source): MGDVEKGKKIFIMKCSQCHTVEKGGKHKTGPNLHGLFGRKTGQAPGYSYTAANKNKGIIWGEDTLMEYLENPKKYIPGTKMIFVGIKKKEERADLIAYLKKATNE
Sequence of THBS1 (chain, as listed by the source): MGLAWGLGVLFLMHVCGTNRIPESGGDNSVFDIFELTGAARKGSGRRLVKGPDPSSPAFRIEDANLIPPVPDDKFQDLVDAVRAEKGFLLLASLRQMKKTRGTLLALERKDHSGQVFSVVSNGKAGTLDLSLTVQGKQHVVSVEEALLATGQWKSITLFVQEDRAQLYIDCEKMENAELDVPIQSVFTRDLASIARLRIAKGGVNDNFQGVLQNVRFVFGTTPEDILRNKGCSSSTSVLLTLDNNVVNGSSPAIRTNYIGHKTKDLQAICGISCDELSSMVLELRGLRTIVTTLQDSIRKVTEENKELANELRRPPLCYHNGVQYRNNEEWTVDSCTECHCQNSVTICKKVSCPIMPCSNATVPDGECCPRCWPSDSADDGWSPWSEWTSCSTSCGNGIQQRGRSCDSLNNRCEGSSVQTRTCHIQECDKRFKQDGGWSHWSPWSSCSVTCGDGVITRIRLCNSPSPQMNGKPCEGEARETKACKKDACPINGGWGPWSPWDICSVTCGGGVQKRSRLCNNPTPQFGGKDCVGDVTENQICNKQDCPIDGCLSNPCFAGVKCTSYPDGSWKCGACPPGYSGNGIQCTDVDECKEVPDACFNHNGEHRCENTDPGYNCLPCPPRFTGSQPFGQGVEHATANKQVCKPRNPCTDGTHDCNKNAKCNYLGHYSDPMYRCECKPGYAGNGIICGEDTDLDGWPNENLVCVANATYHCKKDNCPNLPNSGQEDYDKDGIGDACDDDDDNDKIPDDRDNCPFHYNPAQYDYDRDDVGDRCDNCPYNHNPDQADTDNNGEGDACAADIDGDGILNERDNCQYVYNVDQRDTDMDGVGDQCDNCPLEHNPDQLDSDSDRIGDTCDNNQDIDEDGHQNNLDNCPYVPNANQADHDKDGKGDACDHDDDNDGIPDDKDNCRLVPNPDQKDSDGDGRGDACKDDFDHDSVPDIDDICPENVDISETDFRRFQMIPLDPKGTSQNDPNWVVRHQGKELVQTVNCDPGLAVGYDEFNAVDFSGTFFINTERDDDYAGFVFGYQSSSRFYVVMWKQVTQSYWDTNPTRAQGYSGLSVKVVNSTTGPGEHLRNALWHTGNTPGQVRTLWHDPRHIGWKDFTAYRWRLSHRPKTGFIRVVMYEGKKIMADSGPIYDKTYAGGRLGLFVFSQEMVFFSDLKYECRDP

Substance | solubility change mitosis (log2) (HeLa Kyoto [1]) | solubility in G1/S (log2) (HeLa Kyoto [2]) | melting temperature (HeLa Kyoto [3]; cell cycle stage: G1/S) | melting temperature (HeLa Kyoto [3]; cell cycle stage: mitosis) | thermal stability score (HeLa Kyoto [4]; [5]) | thermal stability score (HeLa Kyoto [4]; cell cycle stage: mitosis)
CIT | -0.113 | -0.0433 | 50.1 °C | 50.4 °C | 0.287 | 0.352
CLASP1 | -0.0633 | -0.0269 | 48.8 °C | 49.2 °C | -0.916 | 0.139
CLTCL1 | -0.0594 | -0.305 | 50.8 °C | 49.8 °C | 0.282 | 0.64
COL5A1 | 0.0059 | -0.2 | 55.6 °C | 55.3 °C | -0.461 | 1.15
COPE | 0.0106 | 0.212 | 50.3 °C | 50.9 °C | -0.526 | -0.936
CSPG4 | 0.0955 | 0.0261 | 54.8 °C | 55 °C | -3.28 | 0.175
CTSC | -0.0557 | 0.136 | 56.8 °C | 59 °C | 5.96 | 4.92
CTSZ | -0.0457 | 0.192 | 56.1 °C | 55 °C | -1.5 | -2.8
CYCS | 0.139 | -0.131 | 57.1 °C | 52.2 °C | -1.79 | -2.79
DBNL | -0.0864 | 0.177 | 49.5 °C | 50.5 °C | -0.295 | -0.854
DICER1 | -0.07 | -0.101 | 50.7 °C | 50.1 °C | -0.0197 | 0.111
MSYYQRPFSPSAYSLPASLNSSIVMQHGTSLDSTDTYPQHAQSLDGTTSSSIPLYRSSEEEKRVTVIKAPHYPGIGPVDESGIPTAIRTTVDRPKDWYKTMFKQIHMVHKPDDDTDMYNTPYTYNAGLYNPPYSAQSHPAAKTQTYRPLSKSHSDNSPNAFKDASSPVPPPHVPPPVPPLRPRDRSSTEKHDWDPPDRKVDTRKFRSEPRSIFEYEPGKSSILQHERPASLYQSSIDRSLERPMSSASMASDFRKRRKSEPAVGPPRGLGDQSASRTSPGRVDLPGSSTTLTKSFTSSSPSSPSRAKGGDDSKICPSLCSYSGLNGNPSSELDYCSTYRQHLDVPRDSPRAISFKNGWQMARQNAEIWSSTEETVSPKIKSRSCDDLLNDDCDSFPDPKVKSESMGSLLCEEDSKESCPMAWGSPYVPEVRSNGRSRIRHRSARNAPGFLKMYKKMHRINRKDLMNSEVICSVKSRILQYESEQQHKDLLRAWSQCSTEEVPRDMVPTRISEFEKLIQKSKSMPNLGDDMLSPVTLEPPQNGLCPKRRFSIEYLLEEENQSGPPARGRRGCQSNALVPIHIEVTSDEQPRAHVEFSDSDQDGVVSDHSDYIHLEGSSFCSESDFDHFSFTSSESFYGSSHHHHHHHHHHHRHLISSCKGRCPASYTRFTTMLKHERARHENTEEPRRQEMDPGLSKLAFLVSPVPFRRKKNSAPKKQTEKAKCKASVFEALDSALKDICDQIKAEKKRGSLPDNSILHRLISELLPDVPERNSSLRALRRSPLHQPLHPLPPDGAIHCPPYQNDCGRMPRSASFQDVDTANSSCHHQDRGGALQDRESPRSYSSTLTDMGRSAPRERRGTPEKEKLPAKAVYDFKAQTSKELSFKKGDTVYILRKIDQNWYEGEHHGRVGIFPISYVEKLTPPEKAQPARPPPPAQPGEIGEAIAKYNFNADTNVELSLRKGDRVILLKRVDQNWYEGKIPGTNRQGIFPVSYVEVVKKNTKGAEDYPDPPIPHSYSSDRIHSLSSNKPQRPVFTHENIQGGGEPFQALYNYTPRNEDELELRESDVIDVMEKCDDGWFVGTSRRTKFFGTFPGNYVKRL [SORBS2] | 0.819 | -0.773 | – | – | -2.13 | 0.899
MTSAAEIKKPPVAPKPKFVVANNKPAPPPIAPKPDIVISSVPQSTKKMKPAIAPKPKVLKTSPVREIGQSPSRKIMLNLEGHKQELAESTDNFNCKYEGNQSNDYISPMCSCSSECIHKLGHRENLCVKQLVLEPLEMNENLENSKIDETLTIKTRSKCDLYGEKAKNQGGVVLKASVLEEELKDALIHQMPPFISAQKHRPTDSPEMNGGCNSNGQFRIEFADLSPSPSSFEKVPDHHSCHLQLPSDECEHFETCQDDSEKSNNCFQSSELEALENGKRSTLISSDGVSKKSEVKDLGPLEIHLVPYTPKFPTPKPRKTRTARLLRQKCVDTPSESTEEPGNSDSSSSCLTENSLKINKISVLHQNVLCKQEQVDKMKLGNKSELNMESNSDAQDLVNSQKAMCNETTSFEKMAPSFDKDSNLSSDSTTVDGSSMSLAVDEGTGFIRCTVSMSLPKQLKLTCNEHLQSGRNLGVSAPQMQKESVIKEENSLRIVPKKPQRHSLPATGVLKKAASEELLEKSSYPSSEEKSSEKSLERNHLQHLCAQNRGVSSSFDMPKRASEKPVWKLPHPILPFSGNPEFLKSVTVSSNSEPSTALTKPRAKSLSAMDVEKCTKPCKDSTKKNSFKKLLSMKLSICFMKSDFQKFWSKSSQLGDTTTGHLSSGEQKGIESDWQGLLVGEEKRSKPIKAYSTENYSLESQKKRKKSRGQTSAANGLRAESLDDQMLSRESSSQAPYKSVTSLCAPEYENIRHYEEIPEYENLPFIMAIRKTQELEWQNSSSMEDADANVYEVEEPYEAPDGQLQLGPRHQHSSSGASQEEQNDLGLGDLPSDEEEIINSSDEDDVSSESSKGEPDPLEDKQDEDNGMKSKVHHIAKEIMSSEKVFVDVLKLLHIDFRDAVAHASRQLGKPVIEDRILNQILYYLPQLYELNRDLLKELEERMLHWTEQQRIADIFVKKGPYLKMYSTYIKEFDKNIALLDEQCKKNPGFAAVVREFEMSPRCANLALKHYLLKPVQRIPQYRLLLTDYLKNLIEDAGDYRDTQDALAVVIEVANHANDTMKQGDNFQKLMQIQYSLNGHHEIVQPGRVFLKEGILMKLSRKVMQPRMFFLFNDALLYTTPVQSGMYKLNNMLSLAGMKVRKPTQEAYQNELKIESVERSFILSASSATERDEWLEAISRAIEEYAKKRITFCPSRSLDEADSENKEEVSPLGSKAPIWIPDTRATMCMICTSEFTLTWRRHHCRACGKIVCQACSSNKYGLDYLKNQPARVCEHCFQELQKLDHQHSPRIGSPGNHKSPSSALSSVLHSIPSGRKQKKIPAALKEVSANTEDSSMSGYLYRSKGNKKPWKHFWFVIKNKVLYTYAASEDVAALESQPLLGFTVIQVKDENSESKVFQLLHKNMLFYVFKAEDAHSAQKWIEAFQEGTIL [FGD6] | 0.03 | -0.0552 | – | – | -0.173 | 0.213
MTTEQRRSLQAFQDYIRKTLDPTYILSYMAPWFREEEVQYIQAEKNNKGPMEAATLFLKFLLELQEEGWFRGFLDALDHAGYSGLYEAIESWDFKKIEKLEEYRLLLKRLQPEFKTRIIPTDIISDLSECLINQECEEILQICSTKGMMAGAEKLVECLLRSDKENWPKTLKLALEKERNKFSELWIVEKGIKDVETEDLEDKMETSDIQIFYQEDPECQNLSENSCPPSEVSDTNLYSPFKPRNYQLELALPAMKGKNTIICAPTGCGKTFVSLLICEHHLKKFPQGQKGKVVFFANQIPVYEQQKSVFSKYFERHGYRVTGISGATAENVPVEQIVENNDIIILTPQILVNNLKKGTIPSLSIFTLMIFDECHNTSKQHPYNMIMFNYLDQKLGGSSGPLPQVIGLTASVGVGDAKNTDEALDYICKLCASLDASVIATVKHNLEELEQVVYKPQKFFRKVESRISDKFKYIIAQLMRDTESLAKRICKDLENLSQIQNREFGTQKYEQWIVTVQKACMVFQMPDKDEESRICKALFLYTSHLRKYNDALIISEHARMKDALDYLKDFFSNVRAAGFDEIEQDLTQRFEEKLQELESVSRDPSNENPKLEDLCFILQEEYHLNPETITILFVKTRALVDALKNWIEGNPKLSFLKPGILTGRGKTNQNTGMTLPAQKCILDAFKASGDHNILIATSVADEGIDIAQCNLVILYEYVGNVIKMIQTRGRGRARGSKCFLLTSNAGVIEKEQINMYKEKMMNDSILRLQTWDEAVFREKILHIQTHEKFIRDSQEKPKPVPDKENKKLLCRKCKALACYTADVRVIEECHYTVLGDAFKECFVSRPHPKPKQFSSFEKRAKIFCARQNCSHDWGIHVKYKTFEIPVIKIESFVVEDIATGVQTLYSKWKDFHFEKIPFDPAEMSK [DDX58] | -0.199 | -0.211 | – | – | 0.775 | 0.756
MVDRLANSEANTRRISIVENCFGAAGQPLTIPGRVLIGEGVLTKLCRKKPKARQFFLFNDILVYGNIVIQKKKYNKQHIIPLENVTIDSIKDEGDLRNGWLIKTPTKSFAVYAATATEKSEWMNHINKCVTDLLSKSGKTPSNEHAAVWVPDSEATVCMRCQKAKFTPVNRRHHCRKCGFVVCGPCSEKRFLLPSQSSKPVRICDFCYDLLSAGDMATCQPARSDSYSQSLKSPLNDMSDDDDDDDSSD [PLEKHF2] | -0.0311 | 0.163 | – | – | 0.212 | 0.829
MWHEARKHERKLRGMMVDYKKRAERRREYYEKIKKDPAQFLQVHGRACKVHLDSAVALAAESPVNMMPWQGDTNNMIDRFDVRAHLDHIPDYTPPLLTTISPEQESDERKCNYERYRGLVQNDFAGISEEQCLYQIYIDELYGGLQRPSEDEKKKLAEKKASIGYTYEDSTVAEVEKAAEKPEEEESAAEEESNSDEDEVIPDIDVEVDVDELNQEQVADLNKQATTYGMADGDFVRMLRKDKEEAEAIKHAKALEEEKAMYSGRRSRRQRREFREKRLRGRKISPPSYARRDSPTYDPYKRSPSESSSESRSRSRSPTPGREEKITFITSFGGSDEEAAAAAAAAAASGVTTGKPPAPPQPGGPAPGRNASARRRSSSSSSSSSASRTSSSRSSSRSSSRSRRGGGYYRSGRHARSRSRSWSRSRSRSRRYSRSRSRGRRHSGGGSRDGHRYSRSPARRGGYGPRRRSRSRSHSGDRYRRGGRGLRHHSSSRSRSSWSLSPSRSRSLTRSRSHSPSPSQSRSRSRSRSQSPSPSPAREKLTRPAASPAVGEKLKKTEPAAGKETGAAKPKLTPQEKLKLRMQKALNRQFKADKKAAQEKMIQQEHERQEREDELRAMARKIRMKERERREKEREEWERQYSRQSRSPSPRYSREYSSSRRRSRSRSRSPHYRH [CLASRP] | 0.526 | -0.572 | – | – | 0.728 | 0.776
NHSL1 | -0.0684 | -0.0561 | – | – | 0.447 | 1.09
PPL | 0.304 | -0.342 | – | – | -0.748 | 1.36
SVIL | 0.176 | -1.65 | – | – | -0.947 | 0.478
TACC1 | -0.0581 | 0.335 | – | – | -4.04 | -4.77
THBS1 | 0.0125 | -0.19 | – | – | 4.61 | 5.07
URB2 | 0.744 | -1.43 | – | – | 1.35 | 1.43
